Results on 7 molecules are retold here after US20190031771A1 (University of Pennsylvania, published 2019).

In assay [1] the target is T1, hemagglutinin ectodomain of influenza virus H1/PR/8/34 (influenza virus H1/PR/8/34, UniProt P03452 18-528).
T1 construct: extracellular domain; also called HA H1/PR/8/34
Put plainly: immunoassay or flow cytometry. (In general: Flow cytometry measures light scatter and fluorescence of single cells or particles in a stream.)

The target in assay [2] is T2, human ADAMTS13 (human, UniProt Q76LX8 75-1427).
T2 construct: ELISA: full-length recombinant ADAMTS13 coated on plates (Technoclone); Activity assays: endogenous ADAMTS13 of normal human plasma; also called full-length human recombinant ADAMTS13; VWF-cleaving protease
T2 sequence (looked up): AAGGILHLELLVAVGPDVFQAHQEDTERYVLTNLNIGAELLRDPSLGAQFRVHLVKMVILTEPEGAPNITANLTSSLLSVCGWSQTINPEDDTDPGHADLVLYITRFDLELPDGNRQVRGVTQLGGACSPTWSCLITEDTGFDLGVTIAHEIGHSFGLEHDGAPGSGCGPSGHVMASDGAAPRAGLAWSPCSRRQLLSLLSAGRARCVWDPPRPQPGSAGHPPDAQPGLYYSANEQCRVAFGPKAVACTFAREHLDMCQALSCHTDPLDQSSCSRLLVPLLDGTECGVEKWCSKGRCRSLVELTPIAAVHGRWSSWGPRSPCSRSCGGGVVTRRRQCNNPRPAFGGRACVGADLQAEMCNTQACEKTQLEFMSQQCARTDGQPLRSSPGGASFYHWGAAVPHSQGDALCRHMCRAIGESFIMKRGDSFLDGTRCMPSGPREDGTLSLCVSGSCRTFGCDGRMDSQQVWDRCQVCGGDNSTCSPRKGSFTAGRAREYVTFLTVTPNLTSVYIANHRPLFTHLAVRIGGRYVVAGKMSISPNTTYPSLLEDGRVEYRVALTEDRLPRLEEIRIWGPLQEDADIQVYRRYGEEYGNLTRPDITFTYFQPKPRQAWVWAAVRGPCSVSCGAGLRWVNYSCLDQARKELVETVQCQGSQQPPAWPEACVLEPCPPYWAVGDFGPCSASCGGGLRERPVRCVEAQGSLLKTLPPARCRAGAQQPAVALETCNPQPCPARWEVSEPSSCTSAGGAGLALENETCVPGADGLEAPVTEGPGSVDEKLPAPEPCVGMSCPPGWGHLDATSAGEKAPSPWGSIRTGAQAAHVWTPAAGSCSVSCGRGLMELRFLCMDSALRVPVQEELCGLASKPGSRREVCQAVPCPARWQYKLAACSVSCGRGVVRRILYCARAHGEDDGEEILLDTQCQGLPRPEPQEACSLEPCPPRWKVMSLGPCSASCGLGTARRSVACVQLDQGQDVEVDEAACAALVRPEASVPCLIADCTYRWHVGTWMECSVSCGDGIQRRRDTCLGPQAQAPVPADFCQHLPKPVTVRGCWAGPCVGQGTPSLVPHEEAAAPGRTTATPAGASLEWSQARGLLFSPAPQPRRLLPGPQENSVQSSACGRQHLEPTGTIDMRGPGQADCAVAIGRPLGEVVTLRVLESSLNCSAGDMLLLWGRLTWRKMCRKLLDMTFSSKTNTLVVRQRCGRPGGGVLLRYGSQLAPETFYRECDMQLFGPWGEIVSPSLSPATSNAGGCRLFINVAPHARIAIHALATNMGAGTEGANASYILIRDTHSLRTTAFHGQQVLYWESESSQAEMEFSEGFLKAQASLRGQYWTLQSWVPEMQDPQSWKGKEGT
The assay can be described thus: phage ELISA on ADAMTS13-coated plates (positive: >10-fold absorbance above background). On the technique in general: In an ELISA, binding on a coated surface is turned into a signal by an enzyme label.

Assay [3] has as its target T2, human ADAMTS13. The assay can be described thus: cell-based or functional assay.

T1 sequence (P03452 18-528): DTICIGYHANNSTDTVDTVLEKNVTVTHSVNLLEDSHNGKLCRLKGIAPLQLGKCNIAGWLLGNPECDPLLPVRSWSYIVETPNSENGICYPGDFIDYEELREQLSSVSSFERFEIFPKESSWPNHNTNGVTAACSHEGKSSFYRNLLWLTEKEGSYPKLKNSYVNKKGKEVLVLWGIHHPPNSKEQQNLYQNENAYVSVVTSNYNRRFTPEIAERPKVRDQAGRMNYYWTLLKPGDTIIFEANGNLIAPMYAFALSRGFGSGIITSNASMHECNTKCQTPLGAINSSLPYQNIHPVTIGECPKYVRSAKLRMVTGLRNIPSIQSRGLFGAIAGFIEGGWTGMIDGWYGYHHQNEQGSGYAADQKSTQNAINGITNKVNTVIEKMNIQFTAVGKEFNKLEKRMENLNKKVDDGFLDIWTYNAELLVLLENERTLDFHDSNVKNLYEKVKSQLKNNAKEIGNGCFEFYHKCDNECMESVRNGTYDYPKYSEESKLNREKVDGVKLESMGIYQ

B1: scFv 3-302 (scFv, V domains shown)
VH: QVQLVQSGAEVKRPGSSVKVSCKASGNTFSNYHINWVRQAPGQGLQWMGGIIPILGRTNYAQNFQGRVTITTDESTNTAYMELTSLRSEDTAVYYCAREARDSFDFWGQGTMVTVSS
VL: ELVLTQPPSVSVSPGQTASITCSGDKLGHTYTSWYQQKPGQSPVLVIYQDNRRPSGLPERFSGSNSGNTATLTISRVEAGDEADYYCQVWESSSDHLVFGGGTELTVL
With B1, the binding result in assay [1] is recorded as “no binding”; with human ADAMTS13 [2] it was “binds”.

B2: scFv 1-416 (scFv, V domains shown)
VH: QVQLVQSGAEVKKPGSSVRVSCTASGSNFSSHTINWVRQAPGQGLEWMGKVIPVLDISKHAQTFLGRVIITADKSTSTAYLELSSLRSEDTAIYYCAMDSVYGNFDFWGQGTLVTVSS
VL: ELVLTQPPSVSVSPGQTARITCSGDAFPKHYAYWYQQKPGQAPVLVIYKDTERPSGIPERFSGSSSGTTATLTISGVQAEDEADYYCQSTDSSDTWVFGAGTKVTVL
With B2, the binding result in assay [1] is given as “no binding”. Besides, in the assay with human ADAMTS13 [3], the “% ADAMTS13 activity in presence of scFv inhibitor (no rabbit IgG)” value was determined as 20%.

B3: scFv 1-428 (scFv, V domains shown)
VH: EVQLVQSGAEVKKPGSSVKVSCKASGSNFSSHTINWVRQAPGHGLEWMGKIIPVLDISKDAETFLGRVVITADKSTSTAYMELSSLRSEDTAIYYCAMDSVYGNFDFWGQGTLVTVSS
VL: ELELTQPPSVSVSPGQTARITCSGDALPKQYAYWYQQKPGQAPVLVIYKDSERPSGIPERFSGSSSGTTVTLTISGVQAEDEADYYCQSADSSGTYEVFGGGTKLTVL
As for B3, the binding result in assay [1] is reported as “no binding”. Besides, the “% ADAMTS13 activity in presence of scFv inhibitor (no rabbit IgG)” value with human ADAMTS13 [3] is 7%.

B4: scFv 1-431 (scFv, V domains shown)
VH: QVQLVQSGAEVKKFGSSVKVSCKASGGTFSSYTMSWVRQAPGQGLEWMGSFVPILERANYAQGFQGRVTFTADKSTSTAYMELGSLRSEDTAVYYCARDLGDFGDSWGQGTLVTVSS
VL: ELELTQPPSVSVSPGQTARITCSGDALPKQYAYWYQQKPGQAPVLVIYKDSERPSGIPERFSGSSSGTTVTLTISGVQAEDEADYYCQSADSSGTYVFGGGTKLTVL
As for B4, in assay [1], the binding result is recorded as “no binding”. In the assay with human ADAMTS13 [3], the “% ADAMTS13 activity in presence of scFv inhibitor (no rabbit IgG)” value was 19%.

B5: scFv 1-420 (scFv, V domains shown)
VH: QVQLVQSGAEVKKPGSSVKVSCKASGGAFTMYTINWVRQAPGRGLEWMGRIIPILGITDYAQKFQGRGTITADKSTSTAYLELSGLTSEDTAVYYCAREFSGGNYFDFWGQGTLVTVSS
VL: ELELTQPPSVSISPGKTAKIFCGGNSIGRKSVHWYQQKPGQAPVLVVYDDSDRPSGIPERFSGSNSGNTATLTISRVEAGDEADYYCQVWDSSSDYVVFGGGTKLTVL
B5: the binding result in assay [1] is “no binding”. Also, the “% ADAMTS13 activity in presence of scFv inhibitor (no rabbit IgG)” value in the assay with human ADAMTS13 [3] stood at 0%.

B6: scFv 1-438 (scFv, V domains shown)
VH: QVQLVQSGAEVKKPGSSVKVSCKASGGTFSNYDITWVRQAPGQGLEWVGKVIPILDVTNYAQKFQGRVTITADKSTSTAYMELSNLTSEDTAVYFCARFLWGLDVWGQGTMVTVSS
VL: ELVLTQPPSVSVAPGQTARITCGGNNIGSKSVHWYQQKPGQAPVLVVYDDSDRPSGIPERFSGSNSGNTATLTISRVEAGDEADYYCQVWDSSSDHKVFGGGTELTVL
B6: the figures for the binding result (in assay [1]; with human ADAMTS13 [2]) were “no binding” and “binds”, respectively.

B7: scFv 3-405 (scFv, V domains shown)
VH: QVQLVQSGAEVKRPGSSVKVSCKASGNTFSNYHINWVRQAPGQGLQWMGGIIPILGRTNYAQNFQGRVTITTDESTNTAYMELTSLRSEDTAVYYCAREARDSFDFWGQGTMVTVSS
VL: ELVLTQPPSVSVAPGKTARITCGENNIGSKSVHWYQQKPGQAPVLVIYYDTDRPSGIPARFSGSNSGNTATLTISRVEAGDEADYYCQVWDSSSDQRVFGGGTELTVL
Consider B7, for which the binding result in assay [1] was “no binding”; with human ADAMTS13 [2], “binds”.
